Results: US20140314667A1 (Amgen, published 2014)
“And” between values parts separate entries of the source, which are not always exact repeats. Identical values can stand only once.

Legend:
[1] = target: T1, EGFRvIII, full length, expressed on cells (human, UniProt P00533 25-1210); experiment: cell-based or functional assay
[2] = target: T2, EGFRvIII-Rabbit Fc fusion protein (human; rabbit, UniProt P00533 25-645); experiment: ELISA, recombinant antibody supernatant on coated EGFRvIII-RbFc, 1.5 ug/ml
T2 construct: Made in 293F cells; also called EGFRvIII-RbFc; EGFRvIII-Rab Ig Fc fusion protein; not shown: Hinge-CH2-CH3 domain of rabbit IgG (721 bp fragment)
Method: The secretion ELISA tests were performed as follows. For Ab secretion, 2 μg/mL of Goat anti-human IgG H+L and for antigen binding, 1.5 μg/ml of EGFRvIII-Rab Ig Fc fusion protein was coated onto Costar Labcoat Universal Binding Polystyrene 96 well plates and held overnight at four degrees. The plates were washed five times with dH₂O. Recombinant antibodies were titrated 1:2 for 7 wells from the undiluted minilipofection supernatant. The plates were washed five times with dH₂O. A goat anti-human IgG Fc-specific HRP-conjugated antibody was added at a final concentration of 1 μg/mL for 1 hour at RT for the secretion plates and binding plates detected with 1 μg/ml Rb anti Hu Fc for 1 hour at room temperature. The plates were washed five times with dH₂O. The plates were developed with the addition of TMB for 30 minutes and the ELISA was stopped by the addition of 1 M phosphoric acid. Each ELISA plate was analyzed to determine the optical density of each well at 450 nm.

[3] = target: T1, EGFRvIII, full length, expressed on …; experiment: FACS on NR6 M cells, antibody at 0.25 ug/ml, no glutathione
Method: XenoMax derived IgG1 recombinant antibodies were expressed, purified and quantitated as described previously. Antibodies were further assayed for their ability to internalize the EGFRvIII receptor in NR6 M cells. […] The cells were washed with cold 10% FCS in PBS and secondary antibody (SS Alexa antihuman IgG Fab) at 3 μg/ml Fab was added and incubated for 7 mins on ice. The cells were washed with cold 10% FCS in PBS once and then resuspended in cold media. Next, two sets of the triplicate were incubated at 37° C. and the remaining set was incubated at 4° C. for 1 hr. After that the cells incubated at 4° C. and one set of the cells incubated at 37° C. were treated with glutathione (as previously mentioned) for 1 hr on ice. Then the cells were washed and resuspended in 100 μl of cold 1% FCS in PBS and analyzed by FACS. The % internalization was calculated from the geometric mean obtained from the FACS analysis [(mean at 37° C. with glutathione−mean at 4° C. with glutathione)/(mean at 37° C. without glutathione−mean at 4 C with glutathione)].

[4] = target: T1, EGFRvIII, full length, expressed on …; experiment: cell-based or functional assay; remark: listed apart in the source

Binder	IC50 of cell growth inhibition (CellTiter-Glo, U251vIII cells) [1]	Titer, antigen binding [2]	FACS Geometric mean, without glutathione 37 C [3] [geometric mean]	% internalization [4] [%]
Ab 131-DM1 conjugate (antibody, V domains shown, DM1 linked through SMCC (MCC) to amine groups of the antibody, 3.0-3.5 DM1 molecules per antibody; sites not stated) VH: QVQLVESGGGVVQSGRSLRLSCAASGFTFRNYGMHWVRQAPGKGLEWVAVIWYDGSDKYYADSVRGRFTISRDNSKNTLYLQMNSLRAEDTAVYYCARDGYDILTGNPRDFDYWGQGTLVTVSS VL: DTVMTQTPLSSHVTLGQPASISCRSSQSLVHSDGNTYLSWLQQRPGQPPRLLIYRISRRFSGVPDRFSGSGAGTDFTLEISRVEAEDVGVYYCMQSTHVPRTFGQGTKVEIK	0.068 nM DM1 equivalents and 3 ng/mL	–	–	–
SC-EGFRvIII-XG1-139 (antibody, IgG1, V domains shown, Recombinant IgG1 kappa; also called sc139; SC139) VH: EVQVLESGGGLVQPGGSLRLSCAASGFTFSSYAMSWVRQAPGKGLEWVSAISGSGGSTNYADSVKGRFTISRDNSKNTLYLQMNSLRAEDTAVYYCAGSSGWSEYWGQGTLVTVSS VL: DIQMTQSPSSLSASVGDRVTITCRASQGIRNNLAWYQQKPGKAPKRLIYAASNLQSGVPSRFTGSGSGTEFTLIVSSLQPEDFATYYCLQHHSYPLTSGGGTKVEIK	–	> 64 titer (1:x dilution of supernatant)	22.6	80.8
SC-EGFRvIII-XG1-250 (antibody, IgG1, V domains shown, Recombinant IgG1 kappa; also called sc250; SC250) VH: EGQLLESGGGWVQPGESLRLSCAASGFTFSSYAMSWVRQAPGKGLEWVSAISGSGGSTNYADSVKGRFTISRDNSKNTLYLQVNSLRVEDTAVYYCAGSSGWSEYWGQGTLVTVSS VL: DIQMTQSPSSLSASVGDSVTITCRTSQGIRKNLGWYQQKPGKAPKRLIYAASSLQSGVPSRFSGSGSGTEFTLTISRLQPEDFATYYCLQHHSYPLTFGGGTRVEIR	–	> 64 titer (1:x dilution of supernatant)	24.1	16.7
SC-EGFRvIII-XG1-318 (antibody, IgG1, V domains shown, Recombinant IgG1 kappa; also called mAb ID 141A10) VH: QVQLVESGGGVVQPGRSLRLSCVASGFTLSSYGMHWVRQAPGKGLEWVAVTSYDGSKKDYADSVKGRFTISRDNSKNTLYLQMNSLRAEDTAVYYCVSEGYCDSSSCYKYYYYGMDVWGQGTTVTVSS VL: DIVMTQSPLSLPVTPGEPASISCRSSQSLLYRNGNNYLDWYLQRPGQSPQLLIYLGSNRASGVPDRFSGSGSGTDFTLKISRVEAEDVGVYYCMQALQTPRTFGQGTKVEIK	–	64 titer (1:x dilution of supernatant)	–	–
SC-EGFRvIII-XG1-123/124 (antibody, IgG1, V domains shown, Recombinant IgG1 kappa; also called mAb ID 129A7) VH: QVQLVESGGGVVQPGRSLRLSCAASGFTLSSYGMHWVRQAPGKGLEWVAVMSYDGSKEDYADSVKGRFTISRDNSENTLYLQMNSLRAEDTAVYYCVSEGYCSSRSCYKYYYYGMDVWGQGTTVTVSS VL: DIVMTQSPLSLPVTPGEPASISCRSSQSLLYRNGNNYLDWYLQKPGQSPQLLIYLGSNRASGVPDRFSGSGSGTDFTLNISRVEAEDVGHYYCMQALQTPRTFGQGTKVEIK	–	> 64 titer (1:x dilution of supernatant)	–	–
SC-EGFRvIII-XG1-211 (antibody, IgG1, V domains shown, Recombinant IgG1 kappa; also called sc211; SC211) VH: QVQLVESGGGVVQPGRSLRLSCVASGFTLSSYGMHWVRQAPGKGLEWVAVTSYDGSKKDYADSAKGRFTISRDNSKNTLYLQMNSLRAEDTAVYYCVSEGYCSSSSCYKYYYYGMDVWGQGTTVTVSS VL: DIVMTQSPLSLPVTPGEPASISCRSSQSLLYRNGNNYLDWYLQRPGQSPQLLIYLGSNRASGVPDRFSGSGSGTDFTLKISRVEAEDVGVYYCMQALQTPRTFGQGTKVEIK	–	> 64 titer (1:x dilution of supernatant)	20.8	21.6

Continued, values first:

IC50 of cell growth inhibition (CellTiter-Glo, U251vIII cells) [1]	Titer, antigen binding [2]	FACS Geometric mean, without glutathione 37 C [3] [geometric mean]	% internalization [4] [%]	Binder
–	> 64 titer (1:x dilution of supernatant)	–	–	anti-EGFRvIII antibody 131 (antibody, human IgG1, V domains shown, Recombinant human IgG1 kappa; also called sc131) VH: QVQLVESGGGVVQSGRSLRLSCAASGFTFRNYGMHWVRQAPGKGLEWVAVIWYDGSDKYYADSVRGRFTISRDNSKNTLYLQMNSLRAEDTAVYYCARDGYDILTGNPRDFDYWGQGTLVTVSS VL: DTVMTQTPLSSHVTLGQPASISCRSSQSLVHSDGNTYLSWLQQRPGQPPRLLIYRISRRFSGVPDRFSGSGAGTDFTLEISRVEAEDVGVYYCMQSTHVPRTFGQGTKVEIK
–	–	22.1	82.5	antibody 13.1.2 (antibody, V domains shown) VH: QVQLVESGGGVVQPGRSLRLSCAASGFTFSSYGMHWVRQAPGKGLEWVAVIWYDGSNKYYVDSVKGRFTISRDNSKNTLYLQMNSLRAEDTAVYYCARDGWQQLAPFDYWGQGTLVTVSS VL: not shown
–	> 64 titer (1:x dilution of supernatant)	20	20.1	SC-EGFRvIII-XG2-170 (antibody, IgG1, V domains shown, kappa light chain; also called sc170; SC170) VH: QVQLQQSGPGLVKPSQTLSLTCAISGDSVSSNNAAWNWIRQSPARGLEWLGRTYYRSKWYNDYVVSVKSRITINPDTSKNQFSLQLNSVTPEDTAVYYCVRATAFDYWGQGTLVTVSS VL: AIVLTQTPLSSPVTLGQPASISCRSSQSLVHRDGNTYLSWLQQRPGQPPRLLIYKISNRFSGVPDRFSGSGAGTDFTLKISRVEPDDVGVYYCMHTTQLPWTFGQGTKVEIK
–	–	22.6	72.4	antibody 095 (antibody, IgG1, V domains shown, Recombinant IgG1 kappa; also called sc95; SC95) VH: QVQLQESGPFLVKPSQTLSLTCTVSGGSISSGGYYWSWIRQHPGKGLEWIGFIYYRGNTYYNPSLKSRVTISVDTSKNQFSLKLSSVTAADTAVYYCARDGYCSRTGCYGGWFDPWGQGTLVTVSP VL: DIVMTQTPLSSPVTLGQPASISCRSSQSLIHTDGNIYLSWLQQRPGQPPRLLIYKISNRFSGVPDRFSGSGAGTDFTLKISRVEAEDVGVYYCMQGTQFPITFGQGTRLEIK
–	> 64 titer (1:x dilution of supernatant)	20.3	20	SC-EGFRvIII-XG2-150 (antibody, IgG1, V domains shown, kappa light chain; also called sc150; SC150) VH: QVQLQQSGPGLVKPSQTLSLTCAISGDSVSSYSSAWNWIRQSPSRGLEWLGRAYHRSRWYYEYAVSVKSRINITPDTSKNQFSLQLNSVTPEDTAVYYCARGSRFDYWGQGTLVTVSS VL: DIVMTQTPLSSPVTLGQPASISCRSSQSLVHRDGNTYLSWLQQRPGQPPRLLIYKISNRFSGVPDRFSGSGAGTDFTLKISRVEAEDVGIYFCMHTTQFPWTFGQGTRVEIK
–	> 64 titer (1:x dilution of supernatant)	–	–	SC-EGFRvIII-XG1-342 (antibody, IgG1, V domains shown, Recombinant IgG1 kappa; also called mAb ID 124D4) VH: QVQLVESGGGVVQPGRSLRLSCVASGFTLSSYGMHWVRQAPGKGLEWVAVTSYDGSKKDYADSVKGRFTISRDNSKNTLYLQMNSLRAEDTAVYYCVSEGYCDSTSCYKYYYYGMDVWGQGTTVTVSS VL: DIVMTQSPLSLPVTPGEPASISCRSSQSLLYRNGNNYLDWYLQRPGQSPQLLIYLGSNRASGVPDRFSGSGSGTDFTLKISRVEAEDVGVYYCMQALQTPRTFGQGTKVEIK
–	> 64 titer (1:x dilution of supernatant)	–	–	SC-EGFRvIII-XG1-333 (antibody, IgG1, V domains shown, Recombinant IgG1 kappa; also called mAb ID 132D8) VH: QVQLVESGGGVVQPGRSLRLSCVASGFTLSSYGMHWVRQALGKGLEWVAVTSYDGSKKDYADSVKGRFTISRDNSKNTLYLQMNSLRAEDTAVYYCVSEGYCDSTSCYKYYYYGMDVWGQGTTVTVSS VL: DIVMTQSPLSLPVTPGEPASISCRSSQSLLYRNGNNYLDWYLQRPGQSPQLLIYLGSNRASGVPDRFSGSGSGTDFTLKISRVEAEDVGVYYCMQALQTPRTFGQGTKVEIK
